Results reported in US20180022780A1 (Bayer, published 2018).
Bridge positions count the residues as written; N and C are the ends. Square brackets hold non-standard residues; d marks the D form. Ends that are not written are not given here. * marks the point of attachment. Palmitoyl = CCCCCCCCCCCCCCCC(=O)*; NMeI = CC[C@H](C)[C@H](NC)C(=O)O; Orn = NCCC[C@H](N)C(=O)O; Dab = NCC[C@H](N)C(=O)O; Dap = NC[C@H](N)C(=O)O

Legend:
[1] = target: human adrenomedullin-receptor (human, UniProt Q16602 23-461); assay: cell-based or functional assay
[2] = target: CLR fused to EYFP with RAMP2 fused to ECFP; assay: cell-based or functional assay
Chain of CLR fused to EYFP with RAMP2 fused to ECFP (Q16602 whole entry, chain 1 of 2, the tested form may be a part): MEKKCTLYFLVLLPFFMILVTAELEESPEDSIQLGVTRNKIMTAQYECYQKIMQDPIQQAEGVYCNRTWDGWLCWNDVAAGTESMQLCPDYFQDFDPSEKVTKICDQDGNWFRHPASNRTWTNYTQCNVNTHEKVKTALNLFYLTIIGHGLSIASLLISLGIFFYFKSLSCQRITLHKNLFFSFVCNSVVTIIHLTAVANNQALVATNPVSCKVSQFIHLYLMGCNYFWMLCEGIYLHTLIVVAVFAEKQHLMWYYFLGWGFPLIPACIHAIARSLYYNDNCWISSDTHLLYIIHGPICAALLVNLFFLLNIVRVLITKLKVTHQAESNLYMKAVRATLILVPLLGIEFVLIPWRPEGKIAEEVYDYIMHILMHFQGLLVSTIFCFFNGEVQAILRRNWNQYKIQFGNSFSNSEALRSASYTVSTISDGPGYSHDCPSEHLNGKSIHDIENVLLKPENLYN
Chain of CLR fused to EYFP with RAMP2 fused to ECFP (O60895 whole entry, chain 2 of 2, further chain, the tested form may be a part): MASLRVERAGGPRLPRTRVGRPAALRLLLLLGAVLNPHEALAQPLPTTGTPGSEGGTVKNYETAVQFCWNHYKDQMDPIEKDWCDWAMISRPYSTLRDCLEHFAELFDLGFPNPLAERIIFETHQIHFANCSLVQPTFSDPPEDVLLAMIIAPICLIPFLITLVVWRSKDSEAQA

Chain of human adrenomedullin-receptor (Q16602 23-461): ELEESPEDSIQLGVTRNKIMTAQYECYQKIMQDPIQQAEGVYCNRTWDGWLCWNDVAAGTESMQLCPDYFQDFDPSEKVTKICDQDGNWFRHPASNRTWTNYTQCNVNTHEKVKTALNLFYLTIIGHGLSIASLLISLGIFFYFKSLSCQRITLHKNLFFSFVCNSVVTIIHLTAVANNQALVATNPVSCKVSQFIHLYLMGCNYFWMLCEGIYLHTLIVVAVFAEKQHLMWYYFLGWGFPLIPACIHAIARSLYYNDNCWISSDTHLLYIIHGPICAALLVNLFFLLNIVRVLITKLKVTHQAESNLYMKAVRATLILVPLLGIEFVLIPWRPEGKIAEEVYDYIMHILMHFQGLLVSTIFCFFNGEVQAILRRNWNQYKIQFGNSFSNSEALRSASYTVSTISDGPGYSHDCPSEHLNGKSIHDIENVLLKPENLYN

Row | EC50 [nM], aequorin luminescence of CHO adrenomedullin-receptor reporter cells [1] [nM] | EC50 [nM], cAMP assay (CRE-luciferase luminescence, HEK293 cells) [2] [nM] | Binder
1 | > 1000 | 156 | K(Palmitoyl)GKRFGTETVQKLAHQIYQFTDKDKDNVAPRSKISPQGY-NH2 (lactam 3-8; N-terminus assumed; SMILES CCCCCCCCCCCCCCCC(=O)NCCCC[C@H](N)C(=O)NCC(=O)N[C@H]1CCCCNC(=O)CC[C@@H](C(=O)N[C@H](C(=O)N[C@H](C(=O)N[C@@H](CCC(N)=O)C(=O)N[C@@H](CCCCN)C(=O)N[C@@H](CC(C)C)C(=O)N[C@@H](C)C(=O)N[C@@H](Cc2c[nH]cn2)C(=O)N[C@@H](CCC(N)=O)C(=O)N[C@H](C(=O)N[C@@H](Cc2ccc(O)cc2)C(=O)N[C@@H](CCC(N)=O)C(=O)N[C@@H](Cc2ccccc2)C(=O)N[C@H](C(=O)N[C@@H](CC(=O)O)C(=O)N[C@@H](CCCCN)C(=O)N[C@@H](CC(=O)O)C(=O)N[C@@H](CCCCN)C(=O)N[C@@H](CC(=O)O)C(=O)N[C@@H](CC(N)=O)C(=O)N[C@H](C(=O)N[C@@H](C)C(=O)N2CCC[C@H]2C(=O)N[C@@H](CCCNC(=N)N)C(=O)N[C@@H](CO)C(=O)N[C@@H](CCCCN)C(=O)N[C@H](C(=O)N[C@@H](CO)C(=O)N2CCC[C@H]2C(=O)N[C@@H](CCC(N)=O)C(=O)NCC(=O)N[C@@H](Cc2ccc(O)cc2)C(N)=O)[C@@H](C)CC)C(C)C)[C@@H](C)O)[C@@H](C)CC)C(C)C)[C@@H](C)O)NC(=O)[C@H]([C@@H](C)O)NC(=O)CNC(=O)[C@H](Cc2ccccc2)NC(=O)[C@H](CCCNC(=N)N)NC1=O) [[K^14(PAM), (K^16,E^21)lac]ADM(14-52)]
2 | 19.6 | 41 | GGERFGT[Dab]TVQKLAHQIYQFTDKDKDNVAPRSKISPQGY-NH2 (lactam 3-8) [[G^14, (E^16, Dab^21)lac]ADM(14-52)]
3 | 0.07 | 3.3 | GGCRFGTXTVQKLAHQIYQFTDKDKDNVAPRSKISPQGY (positions 16 and 21 (residues 3 and 8 of the letters) together are cystathionine (C^16→U^21, thioether disulfide bond mimetic); X stands for the printed U at 21; C-terminal amide) [[G^14, (C^16→U^21)]ADM(14-52)]
4 | > 1000 | > 1000 | GGXRFGTXTVQKLAHQIYQFTDKDKDNVAPRSKISPQGY (positions 16 and 21 (residues 3 and 8 of the letters) together are 2,7-diaminosuberic acid (U^16→U^21, biscarba disulfide bond mimetic); X stands for the printed U; C-terminal amide) [[G^14, (U^16→U^21)]ADM(14-52)]
5 | 24 | – | KGCRFGTXTVQKLAHQIYQFTDKDKDNVAPRSKISPQGY (palmitic acid (PAM) on the side chain of K14 (residue 1 of the letters); positions 16 and 21 (residues 3 and 8) together are cystathionine (C^16→U^21, thioether); X stands for the printed U at 21; C-terminal amide) [[K^14(PAM), (C^16→U^21)]ADM(14-52)]
6 | 1.54 | 6.8 | GGXRFGTCTVQKLAHQIYQFTDKDKDNVAPRSKISPQGY (positions 16 and 21 (residues 3 and 8 of the letters) together are cystathionine (U^16→C^21, thioether disulfide bond mimetic); X stands for the printed U at 16; C-terminal amide) [[G^14, (U^16→C^21)]ADM(14-52)]
7 | 11 | – | KGCRFGTXTVQKLAHQIYQFTDKDKDNVAPRSKISPQGY (palmitic acid (PAM) on the N-terminus (alpha-amine of K14); positions 16 and 21 (residues 3 and 8 of the letters) together are cystathionine (C^16→U^21, thioether); X stands for the printed U at 21; C-terminal amide) [PAM[K^14, (C^16→U^21)]ADM(14-52)]
8 | 22 | 2 | K(Palmitoyl)G[Dap]RFGTETVQKLAHQIYQFTDKDKDNVAPRSKISPQGY-NH2 (lactam 3-8; also: acetate salt) [[K^14(PAM), (Dpr^16, E^21)lac]ADM(14-52)]
9 | 32 | 150 | K(Palmitoyl)GERFGTKTVQKLAHQIYQFTDKDKDNVAPRSK[NMeI]SPQGY-NH2 (lactam 3-8) [[K^14(PAM), (E^16,K^21)lac, N-Me-I^47]ADM(14-52)]
10 | 0.81 | 29 | K(Palmitoyl)GERFGTKTVQKLAHQIYQFTDKDKDNVAPRSKISPQGY-NH2 (lactam 3-8; N-terminus assumed; SMILES CCCCCCCCCCCCCCCC(=O)NCCCC[C@H](N)C(=O)NCC(=O)N[C@H]1CCC(=O)NCCCC[C@@H](C(=O)N[C@H](C(=O)N[C@H](C(=O)N[C@@H](CCC(N)=O)C(=O)N[C@@H](CCCCN)C(=O)N[C@@H](CC(C)C)C(=O)N[C@@H](C)C(=O)N[C@@H](Cc2c[nH]cn2)C(=O)N[C@@H](CCC(N)=O)C(=O)N[C@H](C(=O)N[C@@H](Cc2ccc(O)cc2)C(=O)N[C@@H](CCC(N)=O)C(=O)N[C@@H](Cc2ccccc2)C(=O)N[C@H](C(=O)N[C@@H](CC(=O)O)C(=O)N[C@@H](CCCCN)C(=O)N[C@@H](CC(=O)O)C(=O)N[C@@H](CCCCN)C(=O)N[C@@H](CC(=O)O)C(=O)N[C@@H](CC(N)=O)C(=O)N[C@H](C(=O)N[C@@H](C)C(=O)N2CCC[C@H]2C(=O)N[C@@H](CCCNC(=N)N)C(=O)N[C@@H](CO)C(=O)N[C@@H](CCCCN)C(=O)N[C@H](C(=O)N[C@@H](CO)C(=O)N2CCC[C@H]2C(=O)N[C@@H](CCC(N)=O)C(=O)NCC(=O)N[C@@H](Cc2ccc(O)cc2)C(N)=O)[C@@H](C)CC)C(C)C)[C@@H](C)O)[C@@H](C)CC)C(C)C)[C@@H](C)O)NC(=O)[C@H]([C@@H](C)O)NC(=O)CNC(=O)[C@H](Cc2ccccc2)NC(=O)[C@H](CCCNC(=N)N)NC1=O) [[K^14(PAM), (E^16, K^21)lac]ADM(14-52)]
11 | > 1000 | > 1000 | GGKRFGTETVQKLAHQIYQFTDKDKDNVAPRSKISPQGY-NH2 (lactam 3-8; N-terminus assumed; SMILES CC[C@H](C)[C@H](NC(=O)[C@H](CCC(N)=O)NC(=O)[C@H](Cc1c[nH]cn1)NC(=O)[C@H](C)NC(=O)[C@H](CC(C)C)NC(=O)[C@H](CCCCN)NC(=O)[C@H](CCC(N)=O)NC(=O)[C@@H](NC(=O)[C@@H](NC(=O)[C@@H]1CCC(=O)NCCCC[C@H](NC(=O)CNC(=O)CN)C(=O)N[C@@H](CCCNC(=N)N)C(=O)N[C@@H](Cc2ccccc2)C(=O)NCC(=O)N[C@@H]([C@@H](C)O)C(=O)N1)[C@@H](C)O)C(C)C)C(=O)N[C@@H](Cc1ccc(O)cc1)C(=O)N[C@@H](CCC(N)=O)C(=O)N[C@@H](Cc1ccccc1)C(=O)N[C@H](C(=O)N[C@@H](CC(=O)O)C(=O)N[C@@H](CCCCN)C(=O)N[C@@H](CC(=O)O)C(=O)N[C@@H](CCCCN)C(=O)N[C@@H](CC(=O)O)C(=O)N[C@@H](CC(N)=O)C(=O)N[C@H](C(=O)N[C@@H](C)C(=O)N1CCC[C@H]1C(=O)N[C@@H](CCCNC(=N)N)C(=O)N[C@@H](CO)C(=O)N[C@@H](CCCCN)C(=O)N[C@H](C(=O)N[C@@H](CO)C(=O)N1CCC[C@H]1C(=O)N[C@@H](CCC(N)=O)C(=O)NCC(=O)N[C@@H](Cc1ccc(O)cc1)C(N)=O)[C@@H](C)CC)C(C)C)[C@@H](C)O) [[G^14, (K^16, E^21)lac]ADM(14-52)]
12 | 20.5 | 31 | GGERFGTKTVQKLAHQIYQFTDKDKDNVAPRSKISPQGY-NH2 (lactam 3-8; N-terminus assumed; SMILES CC[C@H](C)[C@H](NC(=O)[C@H](CCC(N)=O)NC(=O)[C@H](Cc1c[nH]cn1)NC(=O)[C@H](C)NC(=O)[C@H](CC(C)C)NC(=O)[C@H](CCCCN)NC(=O)[C@H](CCC(N)=O)NC(=O)[C@@H](NC(=O)[C@@H](NC(=O)[C@@H]1CCCCNC(=O)CC[C@H](NC(=O)CNC(=O)CN)C(=O)N[C@@H](CCCNC(=N)N)C(=O)N[C@@H](Cc2ccccc2)C(=O)NCC(=O)N[C@@H]([C@@H](C)O)C(=O)N1)[C@@H](C)O)C(C)C)C(=O)N[C@@H](Cc1ccc(O)cc1)C(=O)N[C@@H](CCC(N)=O)C(=O)N[C@@H](Cc1ccccc1)C(=O)N[C@H](C(=O)N[C@@H](CC(=O)O)C(=O)N[C@@H](CCCCN)C(=O)N[C@@H](CC(=O)O)C(=O)N[C@@H](CCCCN)C(=O)N[C@@H](CC(=O)O)C(=O)N[C@@H](CC(N)=O)C(=O)N[C@H](C(=O)N[C@@H](C)C(=O)N1CCC[C@H]1C(=O)N[C@@H](CCCNC(=N)N)C(=O)N[C@@H](CO)C(=O)N[C@@H](CCCCN)C(=O)N[C@H](C(=O)N[C@@H](CO)C(=O)N1CCC[C@H]1C(=O)N[C@@H](CCC(N)=O)C(=O)NCC(=O)N[C@@H](Cc1ccc(O)cc1)C(N)=O)[C@@H](C)CC)C(C)C)[C@@H](C)O) [[G^14, (E^16, K^21)lac]ADM(14-52)]
13 | 34 | 84 | GG[Dab]RFGTETVQKLAHQIYQFTDKDKDNVAPRSKISPQGY-NH2 (lactam 3-8; N-terminus assumed; SMILES CC[C@H](C)[C@H](NC(=O)[C@H](CCC(N)=O)NC(=O)[C@H](Cc1c[nH]cn1)NC(=O)[C@H](C)NC(=O)[C@H](CC(C)C)NC(=O)[C@H](CCCCN)NC(=O)[C@H](CCC(N)=O)NC(=O)[C@@H](NC(=O)[C@@H](NC(=O)[C@@H]1CCC(=O)NCC[C@H](NC(=O)CNC(=O)CN)C(=O)N[C@@H](CCCNC(=N)N)C(=O)N[C@@H](Cc2ccccc2)C(=O)NCC(=O)N[C@@H]([C@@H](C)O)C(=O)N1)[C@@H](C)O)C(C)C)C(=O)N[C@@H](Cc1ccc(O)cc1)C(=O)N[C@@H](CCC(N)=O)C(=O)N[C@@H](Cc1ccccc1)C(=O)N[C@H](C(=O)N[C@@H](CC(=O)O)C(=O)N[C@@H](CCCCN)C(=O)N[C@@H](CC(=O)O)C(=O)N[C@@H](CCCCN)C(=O)N[C@@H](CC(=O)O)C(=O)N[C@@H](CC(N)=O)C(=O)N[C@H](C(=O)N[C@@H](C)C(=O)N1CCC[C@H]1C(=O)N[C@@H](CCCNC(=N)N)C(=O)N[C@@H](CO)C(=O)N[C@@H](CCCCN)C(=O)N[C@H](C(=O)N[C@@H](CO)C(=O)N1CCC[C@H]1C(=O)N[C@@H](CCC(N)=O)C(=O)NCC(=O)N[C@@H](Cc1ccc(O)cc1)C(N)=O)[C@@H](C)CC)C(C)C)[C@@H](C)O) [[G^14, (Dab^16, E^21)lac]ADM(14-52)]
14 | > 1000 | 21 | GGERFGT[Orn]TVQKLAHQIYQFTDKDKDNVAPRSKISPQGY-NH2 (lactam 3-8) [[G^14, (E^16, Orn^21)lac]ADM(14-52)]
